In PMC2817712:

Biological target: CheY6 (wild type) with an engineered C-terminal biotinylation tag, for SPR surfaces (R. sphaeroides)
Test: SPR; Biacore T100, 25°C; response regulator biotinylated in a C-terminal tag and held on streptavidin (200-1,500 RU); CheA3P1 injected at 120 nM to 2 mM; standard buffer (30 mM Hepes pH 7.5, 150 mM NaCl, 5 mM sodium acetate, 2 mM manganese chloride, 2 mM TCEP) with 0.05% Tween 20; equilibrium binding, 1:1 Langmuir model

CheY6 (wild type) with an engineered C-terminal biotinylation tag, for SPR surfaces (R. sphaeroides), sequence (Q8KLS1 entry or part of it, stated change not applied): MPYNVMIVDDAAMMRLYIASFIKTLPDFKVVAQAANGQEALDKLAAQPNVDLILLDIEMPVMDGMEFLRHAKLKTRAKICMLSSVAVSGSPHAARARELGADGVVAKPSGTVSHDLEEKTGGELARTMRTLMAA

“CheA3P1, the isolated P1 (Hpt, histidine-containing phosphotransfer) domain of CheA3 (residues 1-135), unphosphorylated (domain or fragment)” gave a Kd of 218 µM.
